This note sets out measurements from patent US6528630.

Like-named read-outs stand apart in the source and are kept apart here.

The Kd is the concentration at which binding is half-saturated.

The target of test [1] is α1B-1α2bβ1-2 human neuronal calcium channel (human) (UniProt Q02641). The test is described as follows: Bmax of 125I-ω-CgTx GVIA binding, against α1B-1β1-2.
Test [2] has as its target α1B-1α2bβ1-3 human neuronal calcium channel (human) (UniProt Q02641). The test is described as follows: Bmax of 125I-ω-CgTx GVIA binding, against α1B-1α2bβ1-2.
Test [3] has the same target. The test is described as follows: Bmax of 125I-ω-CgTx GVIA binding, against α1B-2α2bβ1-3.
For test [4], the target named is α1B-2α2bβ1-2 human neuronal calcium channel (human) (UniProt Q02641). The test is described as follows: Bmax of 125I-ω-CgTx GVIA binding, against α1B-2β1-2.
Test [5] concerns the target α1B-2α2bβ1-3 human neuronal calcium channel (human) (UniProt Q02641). Nature of the test: Bmax of 125I-ω-CgTx GVIA binding, against α1B-2β1-3.
For test [6], the target named is α1B-1α2bβ1-2 human neuronal calcium channel (human) (UniProt Q02641). The test is described as follows: Bmax of 125I-ω-CgTx GVIA binding, against α1B-2α2bβ1-2.
Test [7] deals with α1B-2α2bβ1-3 human neuronal calcium channel (human) (UniProt Q02641). The test is described as above.
In test [8] the target is α1B-2β1-2 human neuronal calcium channel subunit combination (human) (UniProt Q02641). The test is described as follows: saturation binding of 125I-ω-CgTx GVIA to transfected HEK293 cells.
Test [9] deals with α1B-1α2bβ1-3 human neuronal calcium channel (human) (UniProt Q02641). Described as above.
Test [10] deals with α1B-2α2bβ1-2 human neuronal calcium channel (human) (UniProt Q02641). The test is described as above.
In test [11] the target is α1B-1α2bβ1-2 human neuronal calcium channel (human) (UniProt Q02641). Described as above.
The target of test [12] is α1B-2β1-3 human neuronal calcium channel subunit combination (human) (UniProt Q02641). Described as above.
Test [13] concerns the target α1B-1β1-2 human neuronal calcium channel subunit combination (human) (UniProt Q02641). Described as above.
The target in test [14] is α1B-2α2bβ1-3 human neuronal calcium channel (human) (UniProt Q02641). Described as above.
Test [15] addresses α1B-1β1-3 human neuronal calcium channel subunit combination (human) (UniProt Q02641). The test is described as above.
Test [16] deals with α1B-1β1-2 human neuronal calcium channel subunit combination (human) (UniProt Q02641). Nature of the test: Bmax of 125I-ω-CgTx GVIA binding, against α1B-1 alone.
Test [17] concerns the target α1B-1β1-3 human neuronal calcium channel subunit combination (human) (UniProt Q02641). Described as above.
The target in test [18] is α1B-1α2bβ1-3 human neuronal calcium channel (human) (UniProt Q02641). The test is described as follows: Bmax of 125I-ω-CgTx GVIA binding, against α1B-1β1-3.
The target of test [19] is α1B-1α2bβ1-2 human neuronal calcium channel (human) (UniProt Q02641).

α1B-2α2bβ1-2 human neuronal calcium channel (human), sequence (Q02641 whole entry): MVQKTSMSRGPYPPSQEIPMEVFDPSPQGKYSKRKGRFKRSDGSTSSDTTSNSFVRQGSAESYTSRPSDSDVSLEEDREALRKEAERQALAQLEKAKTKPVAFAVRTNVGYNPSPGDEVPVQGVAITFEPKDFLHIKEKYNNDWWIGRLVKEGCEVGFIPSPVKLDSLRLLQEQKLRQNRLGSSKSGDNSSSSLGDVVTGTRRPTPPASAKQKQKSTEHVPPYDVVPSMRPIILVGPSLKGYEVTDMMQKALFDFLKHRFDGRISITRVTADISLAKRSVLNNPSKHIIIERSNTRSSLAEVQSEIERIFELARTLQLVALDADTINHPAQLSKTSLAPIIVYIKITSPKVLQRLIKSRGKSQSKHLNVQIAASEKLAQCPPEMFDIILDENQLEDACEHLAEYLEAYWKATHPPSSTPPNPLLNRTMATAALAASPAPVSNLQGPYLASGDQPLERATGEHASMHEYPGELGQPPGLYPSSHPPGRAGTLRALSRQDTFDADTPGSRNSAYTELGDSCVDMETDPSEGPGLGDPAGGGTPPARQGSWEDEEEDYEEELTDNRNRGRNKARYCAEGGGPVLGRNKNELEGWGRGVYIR
α1B-1β1-3 human neuronal calcium channel subunit combination (human), sequence (Q02641 whole entry): as above
α1B-1α2bβ1-2 human neuronal calcium channel (human), sequence (Q02641 whole entry): as above
α1B-1β1-2 human neuronal calcium channel subunit combination (human), sequence (Q02641 whole entry): as above
α1B-2α2bβ1-3 human neuronal calcium channel (human), sequence (Q02641 whole entry): as above
α1B-1α2bβ1-3 human neuronal calcium channel (human), sequence (Q02641 whole entry): as above
125I-ω-CgTx GVIA, sequence (P01522 46-72 limits assumed): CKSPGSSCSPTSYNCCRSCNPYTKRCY
α1B-2β1-3 human neuronal calcium channel subunit combination (human), sequence (Q02641 whole entry): as the sequence (Q02641 whole entry) above
α1B-2β1-2 human neuronal calcium channel subunit combination (human), sequence (Q02641 whole entry): as above

As for “125I-ω-CgTx GVIA (from UniProt P01522 46-72) (peptide)”, the fold change of surface receptor density was 8 fold in test [1], 9 fold in test [4], 13 fold in test [5] and 10 fold in test [18]. Also, the fold change of binding capacity in [2] and in [7] was 2 fold each time. Besides, the fold change of binding sites per cell in test [3] and in test [6] was 2.5 fold each time. Also, the Bmax in test [8] was 2130 sites/cell; in [9], 91000 sites/cell; in [10] it was 19400 sites/cell; in [11], 45300 sites/cell; in [12] it was 2940 sites/cell; in test [13], 5760 sites/cell. Besides, the Bmax in test [14] amounted to 37700 sites/cell; in test [15], 8730 sites/cell. Further, the Kd amounted to 0.0164 nM in test [8]; 0.0532 nM in test [9]; 0.053 nM in test [10]; 0.0549 nM in [11]; 0.0222 nM in [12]; 0.0179 nM in test [13]. The values for the Kd in test [14] and in [15] were 0.0443 nM and 0.0179 nM, respectively. The fold change of surface binding in test [16] is 8 fold; in test [17], 10 fold.

With “ω-CgTx GVIA (from UniProt P01522 46-72) (peptide)”, in test [19], the Kd was 0.0546 nM and the binding capacity (Bmax) (sites per cell) was 28700.
